Substitutions are numbered along the chain they refer to. Numbers in names are those of the source.
T1: 15-PGDH (Homo sapiens, UniProt P15428)
T1 construct: gene HPGD; recombinant human 15-PGDH with C-terminal TEV-cleavable 6xHis tag, homodimer
T1 sequence (P15428 1-256): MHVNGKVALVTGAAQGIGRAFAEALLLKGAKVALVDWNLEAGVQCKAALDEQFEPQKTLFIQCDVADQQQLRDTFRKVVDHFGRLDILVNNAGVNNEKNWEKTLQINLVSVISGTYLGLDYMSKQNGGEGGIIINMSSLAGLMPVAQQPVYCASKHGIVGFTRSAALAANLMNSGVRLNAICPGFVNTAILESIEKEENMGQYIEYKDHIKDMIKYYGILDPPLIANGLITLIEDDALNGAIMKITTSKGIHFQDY

B1: 15-PGDH (Homo sapiens) (protein)
chain: MHVNGKVALVTGAAQGIGRAFAEALLLKGAKVALVDWNLEAGVQCKAALDEQFEPQKTLFIQCDVADQQQLRDTFRKVVDHFGRLDILVNNAGVNNEKNWEKTLQINLVSVISGTYLGLDYMSKQNGGEGGIIINMSSLAGLMPVAQQPVYCASKHGIVGFTRSAALAANLMNSGVRLNAICPGFVNTAILESIEKEENMGQYIEYKDHIKDMIKYYGILDPPLIANGLITLIEDDALNGAIMKITTSKGIHFQDYDTTPFQAKTQ
notes: recombinant human 15-PGDH with C-terminal TEV-cleavable 6xHis tag
B2: 15-PGDH (Homo sapiens; Y217A) (protein)
chain: B1 chain with Y217A
notes: as for B1

Key:
15-PGDH = biological target: T1, 15-PGDH; test: cryo-EM structure of the 15-PGDH-NADH complex ([…] Å); thermal shift; assay type: binding
[1] = substrate: CCCCC[C@H](O)/C=C/[C@H]1[C@H](O)CC(=O)[C@@H]1C/C=C\CCCC(=O)O; test: Michaelis-Menten kinetics of PGE2 oxidation (Km); assay type: biochemical, Homo sapiens; conditions: NAD+ active site

Molecule	cryo-EM structure of the 15-PGDH-NADH complex (3.3 Å); thermal shift (15-PGDH)	Km [1] [µM]
NC(=O)C1=CN([C@@H]2O[C@H](COP(=O)(O)OP(=O)(O)OC[C@H]3O[C@@H](n4cnc5c(N)ncnc54)[C@H](O)[C@@H]3O)[C@@H](O)[C@H]2O)C=CC1 [NADH]	we employed cryo-EM to solve the structure of the 15-PGDH-NADH complex in the absence of inhibitor	–
B1	–	2.2
B2	–	11
